These results are taken from patent US20250313626A1 (HARBOUR BIOMED SHANGHAI, published 2025).

The target of assay [1] is T1, human CD200R1a protein (soluble recombinant) (human, UniProt Q8TD46 29-265).
T1 construct: Soluble protein used in BLI; also called human CD200R1 isoform a; not shown: His tag implied by capture on anti-Penta-HIS biosensors
T1 sequence: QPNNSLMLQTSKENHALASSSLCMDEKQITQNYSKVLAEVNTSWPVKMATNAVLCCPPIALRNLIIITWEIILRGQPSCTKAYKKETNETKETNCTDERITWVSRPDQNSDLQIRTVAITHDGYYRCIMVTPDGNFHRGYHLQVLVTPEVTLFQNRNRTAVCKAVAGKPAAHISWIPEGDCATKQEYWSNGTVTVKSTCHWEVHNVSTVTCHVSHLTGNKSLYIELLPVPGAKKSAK
In words: BLI in-tandem competition on His-captured human CD200R1a; row = 1st Ab (400 nM); competitor (2nd Ab) PR007973. Here is the method:
(§1) To determine if the anti-CD200R1 antibodies bind to human CD200R1a on different or approximate binding epitopes, epitope competition experiments for the anti-CD200R1 antibodies were performed by the ForteBlio Octet® RED96e platform. […] The in-tandem competition assay format was applied, and it contained two association steps. Firstly, the antigen-loaded biosensors bound to each antibody (i.e., First antibody, 1st Ab) at a saturating concentration of 400 nM for 300 seconds to reach equilibrium and then secondly bound to the competing antibodies (i.e., Second antibody, 2nd Ab) of 400 nM for 300 seconds. The second binding signals are recorded as the 100% signal of each antibody when the first antibodies are replaced by kinetic buffer. All the binding data were analyzed using ForteBlio Data Analysis 11.0 software. The inhibition rate was calculated by the following formula: […]

For assay [2], the target named is T1, human CD200R1a protein (soluble …). As to the kind of experiment: BLI in-tandem competition on His-captured human CD200R1a; row = 1st Ab (400 nM); competitor (2nd Ab) PR007221. As for the experimental part: as §1
For assay [3] the target is unchanged. As to the kind of experiment: BLI in-tandem competition on His-captured human CD200R1a; row = 1st Ab (400 nM); competitor (2nd Ab) PR006207. Here is the method: as §1
For assay [4] the target is unchanged. In words: BLI in-tandem competition on His-captured human CD200R1a; row = 1st Ab (400 nM); competitor (2nd Ab) PR007223. As for the experimental part: as §1

B1: PR006207 (antibody, human IgG1, kappa, L234A L235A, V domains shown)
VH: QVQLVQSGAEVKKPGASVKVSCKASGFSFSSGYYMAWVRQAPGQGLEWMGLIGVGSGSLWYAQKFQGRVTMTRDTSTSTVYMELSSLRSEDTAVYYCARHFALSDPFNLWGQGTLVTVSS
VL: EIVLTQSPDFQSVTPKEKVTITCQASESIDSYLLWYQQKPDQSPKLLIKQASTLASGVPSRFSGSGSGTDFTLTINSLEAEDAATYYCQNYYDISSNDFGGGTKVEIKR
notes: also called recombinant antibody of I-4P
In the case of B1, the “Inhibition ratio (%)” value was -39.9% in assay [1], -36.2% in assay [2], 97.6% in assay [3] and -38.6% in assay [4].
